In the MegaScale stability set (Tsuboyama et al. 2023):

B1: 6YSE (parent)
chain: HERALMVNRLQKLTRMLRVHPDPKWKQEQQELIKRLK

Variants of: B1
Assay: folding stability dG (cDNA display proteolysis); higher = more stable
Settings: PBS, room temperature

First: HERALMVNRLQKLTRMLRYHPDPKWKQEQQELIKRLK [V19Y]
Second: HERALMVNRLQKLTRMLRLHPDPKWKQEQQELIKRLK [V19L]
The “folding stability dG” value of the first is higher: 1.57 kcal/mol for the first, 1.48 kcal/mol for the second.

First: HERALMVNRLQKLTRMLRKHPDPKWKQEQQELIKRLK [V19K]
Second: HERALMVNRLQKLTRMLRWHPDPKWKQEQQELIKRLK [V19W]
The “folding stability dG” value of the first is higher: 1.55 kcal/mol for the first, 1.21 kcal/mol for the second.

Going from HERALMVNRLQKLTRMYRVHPDPKWKQEQQELIKRLK [L17Y] to HERALMVNRLQKLTRMSRVHPDPKWKQEQQELIKRLK [L17S], the “folding stability dG” value falls from 0.234 kcal/mol to -0.127 kcal/mol.

Compared with HERALMVNRLQKLTRMLRVHPDPKWKQEQRELIKRLK [Q30R], HERALMVNRLQKLTRMLRVHPDPKWKQEQMELIKRLK [Q30M] is higher in “folding stability dG” value: 1.21 kcal/mol for the first, 1.42 kcal/mol for the second.

First: HERALMVNRLQKLTRMLRVHPDPKWKQEQAELIKRLK [Q30A]
Second: HERILMVNRLQKLTRMLRVHPDPKWKQEQQELIKRLK [A4I]
The “folding stability dG” value of the first is lower: 1.07 kcal/mol for the first, 1.53 kcal/mol for the second.

First: HERALMVNRLQKLTRMLTVHPDPKWKQEQQELIKRLK [R18T]
Second: HERALMVNRLQKLTRMLLVHPDPKWKQEQQELIKRLK [R18L]
The “folding stability dG” value of the first is lower: 0.657 kcal/mol for the first, 1.2 kcal/mol for the second.

Compared with HERALMVNRLQKLTRMLIVHPDPKWKQEQQELIKRLK [R18I], HERALMVNRLQKLTRMLRVHPDPLWKQEQQELIKRLK [K24L] is higher in “folding stability dG” value: 0.881 kcal/mol for the first, 1.11 kcal/mol for the second.

Going from HERALMVNRLQKLTRMLRVHPDPFWKQEQQELIKRLK [K24F] to HERALMVNRLQKLTRMLRVHPDPQWKQEQQELIKRLK [K24Q], the “folding stability dG” value rises from 0.828 kcal/mol to 1.22 kcal/mol.

Compared with HERALMVNRLQKLTRMLRVHPDPRWKQEQQELIKRLK [K24R], HERALMVNRLQKLTRMLRVHPDPYWKQEQQELIKRLK [K24Y] is lower in “folding stability dG” value: 1.34 kcal/mol for the first, 1.13 kcal/mol for the second.

First: HERALMVNRLQKLTRMLRVHPDPVWKQEQQELIKRLK [K24V]
Second: FERALMVNRLQKLTRMLRVHPDPKWKQEQQELIKRLK [H1F]
The “folding stability dG” value of the first is lower: 1.31 kcal/mol for the first, 1.59 kcal/mol for the second.

First: LERALMVNRLQKLTRMLRVHPDPKWKQEQQELIKRLK [H1L]
Second: QERALMVNRLQKLTRMLRVHPDPKWKQEQQELIKRLK [H1Q]
The “folding stability dG” value of the first is lower: 1.36 kcal/mol for the first, 1.38 kcal/mol for the second.

First: HERALMVNRLQKLTRMLRVHPRPKWKQEQQELIKRLK [D22R]
Second: HERALMVNRLQKLTRMLRVHPFPKWKQEQQELIKRLK [D22F]
The “folding stability dG” value of the first is lower: 1.06 kcal/mol for the first, 1.07 kcal/mol for the second.

First: HERALMVNRLQKLTRMLRVHPTPKWKQEQQELIKRLK [D22T]
Second: HERALMVNRLQKLSRMLRVHPDPKWKQEQQELIKRLK [T14S]
The “folding stability dG” value of the first is higher: 1.13 kcal/mol for the first, 1.03 kcal/mol for the second.

Compared with HERALMVNRLQKLERMLRVHPDPKWKQEQQELIKRLK [T14E], HERALMVNRLQKLFRMLRVHPDPKWKQEQQELIKRLK [T14F] is lower in “folding stability dG” value: 1.19 kcal/mol for the first, 0.771 kcal/mol for the second.

Going from HERALMVNRLQKLRRMLRVHPDPKWKQEQQELIKRLK [T14R] to HERALMVNRLQKLTRMLRVHPDPKWKQEQQELIKFLK [R35F], the “folding stability dG” value falls from 1.3 kcal/mol to 1.18 kcal/mol.

First: HERALMVNRLQKLTRMLRVHPDPKWKQEQQELIKALK [R35A]
Second: HERALMVNRLQKLTRMLRVHPDPKWKQEQQELIKELK [R35E]
The “folding stability dG” value of the first is higher: 1.24 kcal/mol for the first, 0.729 kcal/mol for the second.

Going from HERALMVNRLQKLTRMLRVHPDPKWKQEQQELIKWLK [R35W] to HERALMVNRLQKLTRMLRVHPDPKWKQEQQELIKYLK [R35Y], the “folding stability dG” value falls from 1.42 kcal/mol to 1.16 kcal/mol.

Compared with HERALMVNRLQKLTRMLRVHPDPKWKQEQQELIKQLK [R35Q], HERALMVNRLQKLTRMLRVEPDPKWKQEQQELIKRLK [H20E] is lower in “folding stability dG” value: 1.19 kcal/mol for the first, 0.232 kcal/mol for the second.

First: HERALMVNRLQKLTRMLRVQPDPKWKQEQQELIKRLK [H20Q]
Second: HERALMVNRLQKLTRMLRVTPDPKWKQEQQELIKRLK [H20T]
The “folding stability dG” value of the first is lower: 0.946 kcal/mol for the first, 1.13 kcal/mol for the second.

Going from HERALMVNRLQKLTRMLRVVPDPKWKQEQQELIKRLK [H20V] to HERALMVNRLQKLTRMLRVHPDPKWKWEQQELIKRLK [Q27W], the “folding stability dG” value falls from 0.774 kcal/mol to 0.767 kcal/mol.

Going from HERALMVNRLQKLTRMLRVHPDPKWKREQQELIKRLK [Q27R] to HERALMVNRLQKLTRMLRVHPDPKWKHEQQELIKRLK [Q27H], the “folding stability dG” value falls from 1.23 kcal/mol to 1.21 kcal/mol.

Going from HERALMVNRLQKLTRMLRVHPDPKWKYEQQELIKRLK [Q27Y] to HERALMVNRLQKLTRMLRVHPDPKWKTEQQELIKRLK [Q27T], the “folding stability dG” value rises from 0.821 kcal/mol to 1.01 kcal/mol.

Compared with HERALMVNRLQKLTRMLRVHPDPKWKAEQQELIKRLK [Q27A], HERALMVNRLQKLTRMLRVHPDPKWKQEQQHLIKRLK [E31H] is lower in “folding stability dG” value: 1.6 kcal/mol for the first, 0.812 kcal/mol for the second.

First: HERALMVNRLQKLTRMLRVHPDPKWKQEQQKLIKRLK [E31K]
Second: HERALMVNRLQKLTRMLRVHPDPKWKQEQQSLIKRLK [E31S]
The “folding stability dG” value of the first is lower: 0.805 kcal/mol for the first, 0.996 kcal/mol for the second.

Compared with HERALMVNRLQKLTRMLRVHPDPKWKQEQQNLIKRLK [E31N], HERALMVNRLQKLTRMLRVHPDPKWKQEQQMLIKRLK [E31M] is higher in “folding stability dG” value: 0.839 kcal/mol for the first, 1.45 kcal/mol for the second.

Compared with HERALMVNRLQKLTRMLRVHPDPKWKQEQQCLIKRLK [E31C], HERALMVNRLQKLTRMLRVHPDPKWKQEQQQLIKRLK [E31Q] is lower in “folding stability dG” value: 1.69 kcal/mol for the first, 0.963 kcal/mol for the second.

First: HERALMVNRLQKLTRMLRVHPDPKWKQEQQTLIKRLK [E31T]
Second: HERALMVNRLQKLTRMLRVHPDPKWQQEQQELIKRLK [K26Q]
The “folding stability dG” value of the first is lower: 0.995 kcal/mol for the first, 1.03 kcal/mol for the second.

First: HERALMVNRLQKLTRMLRVHPDPKWWQEQQELIKRLK [K26W]
Second: HERALMVNRLQKLTRMLRVHPDPKWNQEQQELIKRLK [K26N]
The “folding stability dG” value of the first is higher: 0.964 kcal/mol for the first, 0.211 kcal/mol for the second.

Going from HERALMVNRLQKLTRMLRVHPDNKWKQEQQELIKRLK [P23N] to HERALMVNRLQKLTRMLRVHPDWKWKQEQQELIKRLK [P23W], the “folding stability dG” value rises from 0.238 kcal/mol to 0.75 kcal/mol.

Going from HERALMVNRLQKLTRMLRVHPDYKWKQEQQELIKRLK [P23Y] to HERALMVNRLQKLTRMLRVHPDKKWKQEQQELIKRLK [P23K], the “folding stability dG” value rises from 0.554 kcal/mol to 0.967 kcal/mol.

Going from HERALMVNRLQKLTRMLRVHPDVKWKQEQQELIKRLK [P23V] to HERALMVNRLQKLTRMLRVHPDPKWKQEQQELIKRLL [K37L], the “folding stability dG” value rises from 0.701 kcal/mol to 1.42 kcal/mol.

Compared with HERALMVNRLQKLTRMLRVHPDPKWKQEQQELIKRLS [K37S], HERALMVNRLQKLTRMLRVHPDPKWKQEQQELIKRLY [K37Y] is higher in “folding stability dG” value: 1.19 kcal/mol for the first, 1.74 kcal/mol for the second.

Compared with HERALMVNRLQKLTRMLRVHPDPKWKQEQQELIKRLR [K37R], HERALMVNRLQKLTRMLRVHPDPKWKQEQQELIKRLE [K37E] is lower in “folding stability dG” value: 1.55 kcal/mol for the first, 1.05 kcal/mol for the second.

For HERALMVNRLQKLTRMLRVHPDPKWKQEQQELIKRLD [K37D], the “folding stability dG” value was 0.831 kcal/mol.
